From patent US9617572B2, “Methods of producing 7-carbon chemicals via aromatic compounds” (INVISTA North America S.á r.l., priority 2012, dated 2017)
One block for each molecule: values may come before it.

Tests used:
Assay type in all cases: biochemical
[1] = Carboxylate reductase activity assay (pimelate to pimelate semialdehyde); details: purified enzyme enhanced by sfp gene product, 2 mM pimelate, 1 mM ATP, 1 mM NADPH, pH 7.5, room temperature, 20 min, against empty vector control
Experimental: A sequence encoding a HIS-tag was added to the genes from Segniliparus rugosus and Segniliparus rotundus that encode the carboxylate reductases of SEQ ID NOs: 4 and 7, respectively (see FIGS. 7C and 7F), such that N-terminal HIS tagged carboxylate reductases could be produced. Each of the modified genes was cloned into a pET Duet expression vector along with a sfp gene encoding a HIS-tagged phosphopantetheine transferase from Bacillus subtilis, both under the T7 promoter. Each expression vector was transformed into a BL21[DE3] E. coli host and the resulting recombinant E. coli strains were cultivated at 37° C. in a 250 mL shake flask culture containing 50 mL LB media and antibiotic selection pressure, with shaking at 230 rpm. Each culture was induced overnight at 37° C. using an auto-induction media.
The pellet from each induced shake flask culture was harvested via centrifugation. Each pellet was resuspended and lysed via sonication, and the cell debris was separated from the supernatant via centrifugation. […]
Enzyme activity assays (i.e., from pimelate to pimelate semialdehyde) were performed in triplicate in a buffer composed of a final concentration of 50 mM HEPES buffer (pH=7.5), 2 mM pimelate, 10 mM MgCl2, 1 mM ATP and 1 mM NADPH. […] The consumption of NADPH was monitored by absorbance at 340 nm.

[2] = Carboxylate reductase activity assay (N7-acetyl-7-aminoheptanoate to N7-acetyl-7-aminoheptanal); details: purified enzyme enhanced by sfp gene product, 2 mM N7-acetyl-7-aminoheptanoate, 1 mM ATP, 1 mM NADPH, pH 7.5, room temperature, 20 min, against empty vector control
Experimental: The activity of each of the N-terminal His-tagged carboxylate reductases of SEQ ID NOs: 3, 6, and 7 (see Example 4, and FIGS. 7B, 7E, and 7F) for converting N7-acetyl-7-aminoheptanoate to N7-acetyl-7-aminoheptanal was assayed in triplicate in a buffer composed of a final concentration of 50 mM HEPES buffer (pH=7.5), 2 mM N7-acetyl-7-aminoheptanoate, 10 mM MgCl2, 1 mM ATP, and 1 mM NADPH. The assays were initiated by adding purified carboxylate reductase and phosphopantetheine transferase or the empty vector control to the assay buffer containing the N7-acetyl-7-aminoheptanoate then incubated at room temperature for 20 min. The consumption of NADPH was monitored by absorbance at 340 nm.

[3] = Carboxylate reductase activity assay (pimelate semialdehyde to heptanedial); details: purified enzyme enhanced by sfp gene product, 2 mM pimelate semialdehyde, 1 mM ATP, 1 mM NADPH, pH 7.5, room temperature, 20 min, against empty vector control
Experimental: The N-terminal His-tagged carboxylate reductase of SEQ ID NO 7 (see Example 4 and FIG. 7F) was assayed using pimelate semialdehyde as substrate. The enzyme activity assay was performed in triplicate in a buffer composed of a final concentration of 50 mM HEPES buffer (pH=7.5), 2 mM pimelate semialdehyde, 10 mM MgCl2, 1 mM ATP and 1 mM NADPH. The enzyme activity assay reaction was initiated by adding purified carboxylate reductase and phosphopantetheine transferase or the empty vector control to the assay buffer containing the pimelate semialdehyde and then incubated at room temperature for 20 min. The consumption of NADPH was monitored by absorbance at 340 nm.

[4] = Thioesterase enzyme activity assay using pimeloyl-CoA as substrate, forming pimelate; details: 667 μM pimeloyl-CoA, 0.8 μM tesB gene product, pH 7.4, 37° C., 20 min, compared to empty vector control
Experimental: A sequence encoding an N-terminal His tag was added to the tesB gene from Escherichia coli that encodes a thioesterase (SEQ ID NO 1, see FIG. 7A), such that an N-terminal HIS tagged thioesterase could be produced. The modified tesB gene was cloned into a pET15b expression vector under control of the T7 promoter. The expression vector was transformed into a BL21[DE3] E. coli host. The resulting recombinant E. coli strain was cultivated at 37° C. in a 500 mL shake flask culture containing 50 mL Luria Broth (LB) media and antibiotic selection pressure, with shaking at 230 rpm. The culture was induced overnight at 17° C. using 0.5 mM IPTG.
The pellet from the induced shake flask culture was harvested via centrifugation. The pellet was resuspended and lysed in Y-per™ solution (ThermoScientific, Rockford, Ill.). The cell debris was separated from the supernatant via centrifugation. […]
The enzyme activity assay was performed in triplicate in a buffer composed of 50 mM phosphate buffer (pH=7.4), 0.1 mM Ellman's reagent, and 667 μM of pimeloyl-CoA (as substrate). […] The release of Coenzyme A was monitored by absorbance at 412 nm. The absorbance associated with the substrate only control, which contained boiled enzyme, was subtracted from the active enzyme assay absorbance and compared to the empty vector control.

- acceptance of pimelate as substrate (consumption of NADPH, absorbance at 340 nm) [1]: accepted pimelate as substrate
B1: SEQ ID NO 7: Segniliparus rotundus carboxylate reductase, Genbank Accession No. ADG98140.1 (protein, listed as Segniliparus rotundus)
chain: MTQSHTQGPQASAAHSRLARRAAELLATDPQAAATLPDPEVVRQATRPGLRLAERVDAILSGYADRPALGQRSFQTVKDPITGRSSVELLPTFDTITYRELRERATAIASDLAHHPQAPAKPGDFLASIGFISVDYVAIDIAGVFAGLTAVPLQTGATLATLTAITAETAPTLFAASIEHLPTAVDAVLATPSVRRLLVFDYRAGSDEDREAVEAAKRKIADAGSSVLVDVLDEVIARGKSAPKAPLPPATDAGDDSLSLLIYTSGSTGTPKGAMYPERNVAHFWGGVWAAAFDEDAAPPVPAINITFLPLSHVASRLSLMPTLARGGLMHFVAKSDLSTLFEDLKLARPTNLFLVPRVVEMLYQHYQSELDRRGVQDGTREAEAVKDDLRTGLLGGRILTAGFGSAPLSAELAGFIESLLQIHLVDGYGSTEAGPVWRDGYLVKPPVTDYKLIDVPELGYFSTDSPHPRGELAIKTQTILPGYYKRPETTAEVFDEDGFYLTGDVVAQIGPEQFAYVDRRKNVLKLSQGEFVTLAKLEAAYSSSPLVRQLFVYGSSERSYLLAVIVPTPDALKKFGVGEAAKAALGESLQKIARDEGLQSYEVPRDFIIETDPFTVENGLLSDARKSLRPKLKEHYGERLEAMYKELADGQANELRDIRRGVQQRPTLETVRRAAAAMLGASAAEIKPDAHFTDLGGDSLSALTFSNFLHDLFEVDVPVGVIVSAANTLGSVAEHIDAQLAGGRARPTFATVHGKGSTTIKASDLTLDKFIDEQTLEAAKHLPKPADPPRTVLLTGANGWLGRFLALEWLERLAPAGGKLITIVRGKDAAQAKARLDAAYESGDPKLAGHYQDLAATTLEVLAGDFSEPRLGLDEATWNRLADEVDFISHPGALVNHVLPYNQLFGPNVAGVAEIIKLAITTRIKPVTYLSTVAVAAGVEPSALDEDGDIRTVSAERSVDEGYANGYGNSKWGGEVLLREAHDRTGLPVRVFRSDMILAHQKYTGQVNATDQFTRLVQSLLATGLAPKSFYELDAQGNRQRAHYDGIPVDFTAESITTLGGDGLEGYRSYNVFNPHRDGVGLDEFVDWLIEAGHPITRIDDYDQWLSRFETSLRGLPESKRQASVLPLLHAFARPGPAVDGSPFRNTVFRTDVQKAKIGAEHDIPHLGKALVLKYADDIKQLGLL
- acceptance of N7-acetyl-7-aminoheptanoate as substrate (consumption of NADPH, absorbance at 340 nm) [2]: accepted N7-acetyl-7-aminoheptanoate as substrate
- acceptance of pimelate semialdehyde as substrate, forming heptanedial (consumption of NADPH, absorbance at 340 nm) [3]: accepted pimelate semialdehyde as substrate

- acceptance of pimeloyl-CoA as substrate (release of Coenzyme A, absorbance at 412 nm) [4]: acceped pimeloyl-CoA as substrate
B2: tesB: Escherichia coli thioesterase encoded by tesB, GenBank Accession No. AAA24665.1 (protein, listed as Escherichia coli)
chain: MSQALKNLLTLLNLEKIEEGLFRGQSEDLGLRQVFGGQVVGQALYAAKETVPEERLVHSFHSYFLRPGDSKKPIIYDVETLRDGNSFSARRVAAIQNGKPIFYMTASFQAPEAGFEHQKTMPSAPAPDGLPSETQIAQSLAHLLPPVLKDKFICDRPLEVRPVEFHNPLKGHVAEPHRQVWIRANGSVPDDLRVHQYLLGYASDLNFLPVALQPHGIGFLEPGIQIATIDHSMWFHRPFNLNEWLLYSVESTSASSARGFVRGEFYTQDGVLVASTVQEGVMRNHN

- acceptance of pimelate as substrate (consumption of NADPH, absorbance at 340 nm) [1]: accepted pimelate as substrate
B3: SEQ ID NO 4: Segniliparus rugosus carboxylate reductase, Genbank Accession No. EFV11917.1 (protein, listed as Segniliparus rugosus)
chain: MGDGEERAKRFFQRIGELSATDPQFAAAAPDPAVVEAVSDPSLSFTRYLDTLMRGYAERPALAHRVGAGYETISYGELWARVGAIAAAWQADGLAPGDFVATVGFTSPDYVAVDLAAARSGLVSVPLQAGASLAQLVGILEETEPKVLAASASSLEGAVACALAAPSVQRLVVFDLRGPDASESAADERRGALADAEEQLARAGRAVVVETLADLAARGEALPEAPLFEPAEGEDPLALLIYTSGSTGAPKGAMYSQRLVSQLWGRTPVVPGMPNISLHYMPLSHSYGRAVLAGALSAGGTAHFTANSDLSTLFEDIALARPTFLALVPRVCEMLFQESQRGQDVAELRERVLGGRLLVAVCGSAPLSPEMRAFMEEVLGFPLLDGYGSTEALGVMRNGIIQRPPVIDYKLVDVPELGYRTTDKPYPRGELCIRSTSLISGYYKRPEITAEVFDAQGYYKTGDVMAEIAPDHLVYVDRSKNVLKLSQGEFVAVAKLEAAYGTSPYVKQIFVYGNSERSFLLAVVVPNAEVLGARDQEEAKPLIAASLQKIAKEAGLQSYEVPRDFLIETEPFTTQNGLLSEVGKLLRPKLKARYGEALEARYDEIAHGQADELRALRDGAGQRPVVETVVRAAVAISGSEGAEVGPEANFADLGGDSLSALSLANLLHDVFEVEVPVRIIIGPTASLAGIAKHIEAERAGASAPTAASVHGAGATRIRASELTLEKFLPEDLLAAAKGLPAADQVRTVLLTGANGWLGRFLALEQLERLARSGQDGGKLICLVRGKDAAAARRRIEETLGTDPALAARFAELAEGRLEVVPGDVGEPKFGLDDAAWDRLAEEVDVIVHPAALVNHVLPYHQLFGPNVVGTAEIIRLAITAKRKPVTYLSTVAVAAGVEPSSFEEDGDIRAVVPERPLGDGYANGYGNSKWAGEVLLREAHELVGLPVAVFRSDMILAHTRYTGQLNVPDQFTRLVLSLLATGIAPKSFYQQGAAGERQRAHYDGIPVDFTAEAITTLGAEPSWFDGGAGFRSFDVFNPHHDGVGLDEFVDWLIEAGHPISRIDDHKEWFARFETAVRGLPEAQRQHSLLPLLRAYSFPHPPVDGSVYPTGKFQGAVKAAQVGSDHDVPHLGKALIVKYADDLKALGLL
